Target: T1, split luciferase wild-type (WT) Apaf-1 (apoptotic protease activating factor-1), O14727
T1 chain: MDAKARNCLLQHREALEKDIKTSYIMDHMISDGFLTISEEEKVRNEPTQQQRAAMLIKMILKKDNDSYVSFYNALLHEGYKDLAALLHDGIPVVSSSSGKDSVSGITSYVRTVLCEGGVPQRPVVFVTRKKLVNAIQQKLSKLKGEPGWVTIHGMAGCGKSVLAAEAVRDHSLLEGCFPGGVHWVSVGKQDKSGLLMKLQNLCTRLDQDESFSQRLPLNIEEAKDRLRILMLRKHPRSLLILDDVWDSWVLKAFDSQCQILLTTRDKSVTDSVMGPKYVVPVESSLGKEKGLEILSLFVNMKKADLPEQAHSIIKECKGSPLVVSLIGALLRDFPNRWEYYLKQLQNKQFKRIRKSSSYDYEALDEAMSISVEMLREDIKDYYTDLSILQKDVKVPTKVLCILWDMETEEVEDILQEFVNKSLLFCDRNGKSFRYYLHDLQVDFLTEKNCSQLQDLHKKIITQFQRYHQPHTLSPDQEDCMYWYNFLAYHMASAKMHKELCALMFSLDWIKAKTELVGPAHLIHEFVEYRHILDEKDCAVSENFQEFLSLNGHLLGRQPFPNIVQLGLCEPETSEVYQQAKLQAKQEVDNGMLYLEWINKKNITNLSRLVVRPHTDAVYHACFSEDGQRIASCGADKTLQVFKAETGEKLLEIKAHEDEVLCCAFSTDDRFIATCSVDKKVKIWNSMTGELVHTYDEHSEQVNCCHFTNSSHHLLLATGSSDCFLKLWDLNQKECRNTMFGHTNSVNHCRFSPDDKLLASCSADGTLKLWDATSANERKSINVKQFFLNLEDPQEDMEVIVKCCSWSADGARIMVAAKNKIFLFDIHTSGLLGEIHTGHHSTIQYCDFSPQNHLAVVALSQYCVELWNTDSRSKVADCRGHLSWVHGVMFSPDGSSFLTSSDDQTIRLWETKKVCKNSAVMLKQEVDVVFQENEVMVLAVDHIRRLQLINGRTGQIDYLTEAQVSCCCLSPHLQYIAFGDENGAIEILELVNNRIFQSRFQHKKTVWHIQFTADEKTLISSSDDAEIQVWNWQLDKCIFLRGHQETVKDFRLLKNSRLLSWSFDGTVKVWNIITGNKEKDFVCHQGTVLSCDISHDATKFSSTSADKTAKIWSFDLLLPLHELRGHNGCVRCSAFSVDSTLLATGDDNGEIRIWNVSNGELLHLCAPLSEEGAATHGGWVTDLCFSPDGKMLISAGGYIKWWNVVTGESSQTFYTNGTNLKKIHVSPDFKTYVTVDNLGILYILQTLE
Test: split reporter
Settings: remark: other sources report otherwise

- luciferase activity, fold over pcDNA3 transfection control: 32 fold
B1: split luciferase wild-type (WT) Apaf-1 (apoptotic protease activating factor-1), O14727 1-1248 (natural protein)
chain: MDAKARNCLLQHREALEKDIKTSYIMDHMISDGFLTISEEEKVRNEPTQQQRAAMLIKMILKKDNDSYVSFYNALLHEGYKDLAALLHDGIPVVSSSSGKDSVSGITSYVRTVLCEGGVPQRPVVFVTRKKLVNAIQQKLSKLKGEPGWVTIHGMAGCGKSVLAAEAVRDHSLLEGCFPGGVHWVSVGKQDKSGLLMKLQNLCTRLDQDESFSQRLPLNIEEAKDRLRILMLRKHPRSLLILDDVWDSWVLKAFDSQCQILLTTRDKSVTDSVMGPKYVVPVESSLGKEKGLEILSLFVNMKKADLPEQAHSIIKECKGSPLVVSLIGALLRDFPNRWEYYLKQLQNKQFKRIRKSSSYDYEALDEAMSISVEMLREDIKDYYTDLSILQKDVKVPTKVLCILWDMETEEVEDILQEFVNKSLLFCDRNGKSFRYYLHDLQVDFLTEKNCSQLQDLHKKIITQFQRYHQPHTLSPDQEDCMYWYNFLAYHMASAKMHKELCALMFSLDWIKAKTELVGPAHLIHEFVEYRHILDEKDCAVSENFQEFLSLNGHLLGRQPFPNIVQLGLCEPETSEVYQQAKLQAKQEVDNGMLYLEWINKKNITNLSRLVVRPHTDAVYHACFSEDGQRIASCGADKTLQVFKAETGEKLLEIKAHEDEVLCCAFSTDDRFIATCSVDKKVKIWNSMTGELVHTYDEHSEQVNCCHFTNSSHHLLLATGSSDCFLKLWDLNQKECRNTMFGHTNSVNHCRFSPDDKLLASCSADGTLKLWDATSANERKSINVKQFFLNLEDPQEDMEVIVKCCSWSADGARIMVAAKNKIFLFDIHTSGLLGEIHTGHHSTIQYCDFSPQNHLAVVALSQYCVELWNTDSRSKVADCRGHLSWVHGVMFSPDGSSFLTSSDDQTIRLWETKKVCKNSAVMLKQEVDVVFQENEVMVLAVDHIRRLQLINGRTGQIDYLTEAQVSCCCLSPHLQYIAFGDENGAIEILELVNNRIFQSRFQHKKTVWHIQFTADEKTLISSSDDAEIQVWNWQLDKCIFLRGHQETVKDFRLLKNSRLLSWSFDGTVKVWNIITGNKEKDFVCHQGTVLSCDISHDATKFSSTSADKTAKIWSFDLLLPLHELRGHNGCVRCSAFSVDSTLLATGDDNGEIRIWNVSNGELLHLCAPLSEEGAATHGGWVTDLCFSPDGKMLISAGGYIKWWNVVTGESSQTFYTNGTNLKKIHVSPDFKTYVTVDNLGILYILQTLE

— article PMC8427654
